Where “and” joins values, the source holds several entries; their conditions need not be identical. Equal entries are not always repeated.
T1: Human LAG-3 on cells (human LAG-3 expressing EL4 cells; activated human CD3+ T cells) (human, UniProt P18627 23-525)
T1 sequence (looked up): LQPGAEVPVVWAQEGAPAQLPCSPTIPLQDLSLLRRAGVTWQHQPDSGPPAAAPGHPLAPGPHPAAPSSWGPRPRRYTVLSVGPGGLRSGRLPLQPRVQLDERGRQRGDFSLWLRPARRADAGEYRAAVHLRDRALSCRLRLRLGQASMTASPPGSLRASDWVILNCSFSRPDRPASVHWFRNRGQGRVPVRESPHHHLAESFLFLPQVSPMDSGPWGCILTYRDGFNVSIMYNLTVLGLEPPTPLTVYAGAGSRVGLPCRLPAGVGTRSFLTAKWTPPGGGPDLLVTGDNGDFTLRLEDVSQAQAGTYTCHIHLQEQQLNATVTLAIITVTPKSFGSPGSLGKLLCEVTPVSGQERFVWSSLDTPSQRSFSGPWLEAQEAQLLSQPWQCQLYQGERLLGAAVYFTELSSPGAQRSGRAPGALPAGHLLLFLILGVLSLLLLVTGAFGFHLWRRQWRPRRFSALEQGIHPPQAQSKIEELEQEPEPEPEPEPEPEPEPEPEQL

T2: Recombinant human LAG-3 ECD-His6 (human, UniProt P18627 23-433)
T2 construct: also called LAG-3-His; recombinant human LAG-3-His
T2 sequence: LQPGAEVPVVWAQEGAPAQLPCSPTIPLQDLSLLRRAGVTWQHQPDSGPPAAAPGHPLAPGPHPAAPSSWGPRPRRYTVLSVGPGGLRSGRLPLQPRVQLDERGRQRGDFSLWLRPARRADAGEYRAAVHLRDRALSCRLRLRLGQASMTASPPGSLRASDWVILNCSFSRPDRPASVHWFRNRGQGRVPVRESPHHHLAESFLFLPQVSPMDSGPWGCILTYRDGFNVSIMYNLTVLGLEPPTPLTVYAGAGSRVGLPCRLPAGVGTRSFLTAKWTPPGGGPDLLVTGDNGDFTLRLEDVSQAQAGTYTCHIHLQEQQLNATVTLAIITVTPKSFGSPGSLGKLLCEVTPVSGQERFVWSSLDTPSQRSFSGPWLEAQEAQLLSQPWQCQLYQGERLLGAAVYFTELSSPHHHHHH

T3: Fc-tagged recombinant soluble LAG-3 (IMP321) (human, UniProt P18627 23-434)
T3 construct: also called LAG3-Ig molecule IMP321; recombinant sLAG-3; not shown: Fc / Ig part
T3 sequence (looked up): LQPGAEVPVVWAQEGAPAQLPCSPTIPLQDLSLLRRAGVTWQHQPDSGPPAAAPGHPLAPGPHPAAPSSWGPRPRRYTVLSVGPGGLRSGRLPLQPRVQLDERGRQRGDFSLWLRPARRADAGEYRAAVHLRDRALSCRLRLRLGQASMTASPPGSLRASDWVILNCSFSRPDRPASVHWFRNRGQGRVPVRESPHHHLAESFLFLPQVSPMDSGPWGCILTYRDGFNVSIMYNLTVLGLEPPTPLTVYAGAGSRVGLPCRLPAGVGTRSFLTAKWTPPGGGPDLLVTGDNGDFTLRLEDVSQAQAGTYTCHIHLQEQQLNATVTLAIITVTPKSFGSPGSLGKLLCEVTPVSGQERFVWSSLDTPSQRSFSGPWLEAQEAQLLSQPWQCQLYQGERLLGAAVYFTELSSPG


Key:
[1] = target: T1, Human LAG-3 on cells (human LAG-3 …); assay: cell-based or functional assay
[2] = target: T4, recombinant soluble human FcγRIIIa V158 (human, UniProt P08637 17-208); assay: SPR ProteOn XPR36, His-tagged receptor captured on anti-poly-histidine IgG, equilibrium model
T4 construct: also called FcγRIIIa valine V158; CD16
Method: A goat anti-poly-histidine IgG was immobilised on a GLM biosensor chip by primary amine coupling. This surface was used as a capture surface for the poly-histidine tagged human Fc gamma receptors. […] The goat anti-poly-histidine IgG surface was regenerated with 100 mM phosphoric acid between interactions. The run was carried out on the ProteOn XPR36 Protein Array Interaction System at 25° C. and using HBS-EP as running buffer. Data was analysed for each receptor separately, setting a global R-max and using the Equilibrium Model inherent to the ProteOn's analysis software. Control molecules were run at the beginning and the end of the set of samples to be tested to ensure comparability of results. Data was compared from two experiments and hybrid control antibodies used as controls between experiments.

[3] = target: T2, Recombinant human LAG-3 ECD-His6; assay: SPR Biacore T100, Anova comparison of kd
Method: (§1) Wild type fucosylated and afucosylated antibodies were compared for their ability to bind to recombinant human LAG-3 ECD with a C-terminal His6 (SEQ ID NO:51) using the Biacore™ T100 (GE Healthcare™). Protein A was immobilised on a CM5 chip by primary amine coupling. This surface was then used to capture the humanised antibodies. Recombinant human LAG-3 ECD-His6 was then passed over the captured antibodies at 32, 8, 2, 0.5 and 0.125 nM and regeneration was carried out using 50 mM NaOH. The binding curves were double referenced with buffer injection (i.e. 0 nM) and the data was fitted to the T100 analysis software using the 1:1 model. The run was carried out at 25° C., using HBS-EP as the running buffer.
(§2) In order to investigate the statistical significance of this kinetic data, this experiment was repeated 3 times with the same batch of the four antibodies and the chimeric control. KD, ka and kd parameters were each log (base 10) transformed prior to separate statistical analyses. For each parameter, a mixed model analysis of variance CAnova′) was performed on transformed data, including terms for Run (random block effect) and Antibody.
(§3) From the Anova, geometric means were predicted for each antibody, along with statistically plausible ranges (95% confidence intervals) for each mean. Planned comparisons of antibodies were performed within the Anova. […]

[4] = target: T2, Recombinant human LAG-3 ECD-His6; assay: SPR Biacore T100, Anova comparison of KD
Method: as §1, §2, §3

[5] = target: T3, Fc-tagged recombinant soluble LAG-3 …; assay: SPR Biacore 3000, off-rate comparison with IMP731, IMP321 analyte at 64 nM
Method: The binding kinetics of the purified antibodies for a sLAG-3 molecule were assessed by SPR using a Biacore™ 3000. A goat anti-human kappa antibody (Southern Biotech, Catalogue No. 2060-01) was immobilised on a CM5 chip by primary amine coupling. Humanised anti-LAG3 antibodies were captured on this surface and the LAG3-Ig molecule IMP321 (Chrystelle Brignone, Caroline Grygar, Manon Marcu, Knut Schakel, Frederic Triebel, The Journal of Immunology, 2007, 179: 4202-4211) used as the analyte at 64 nM with a buffer injection (i.e. 0 nM) used to double reference the binding curves. Regeneration was with 10 mM Glycine, pH1.5. The run was carried out on the Biacore™ 3000, using HBS-EP as running buffer and at 25° C. Sensorgrams were normalised for binding at maximal association and off-rates compared against IMP731 by visual inspection of the sensorgram profiles.

T4 sequence (P08637 17-208 F176V limits assumed): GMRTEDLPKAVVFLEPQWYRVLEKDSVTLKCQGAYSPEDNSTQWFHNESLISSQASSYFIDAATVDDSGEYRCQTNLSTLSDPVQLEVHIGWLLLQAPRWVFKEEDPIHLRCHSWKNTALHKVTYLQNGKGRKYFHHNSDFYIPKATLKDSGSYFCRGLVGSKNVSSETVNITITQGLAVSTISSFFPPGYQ

Row | EC50 of depletion of antigen specific CD4 T cells by ADCC (primary human T cells, autologous NK cells, 18 h) [1] | EC50 of depletion of antigen specific LAG-3 positive CD8 T cells by ADCC [1] | fold improvement in affinity against H5L7 [2] | kd ratio against H5L7 [3] | KD ratio against H5L7 [4] | Rank order of off-rates [5] | kd ratio against IMP731 [3] | KD ratio against IMP731 [4] | Binder
1 | 14 µg/mL and 3.4 ng/mL | 122 µg/mL and 0.0175 µg/mL | ~10 fold | 1.12 ratio | 1.05 ratio | – | – | – | H5L7BW (antibody, human IgG1, kappa, afucosylated: no fucose on the core carbohydrate structure attached to Asn297, Same plasmids as H5L7, expressed in the BioWa POTELLIGENT (FUT8 knock-out CHO) cell line; also called afucosylated antibody H5L7BW; afucosylated H5L7) heavy: not shown light: DIQMTQSPSSLSASVGDRVTITCKSSQSLLNPSNQKNYLAWYQQKPGKAPKLLVYFASTRDSGVPSRFSGSGSGTDFTLTISSLQPEDFATYYCLQHFGTPPTFGQGTKLEIKRTVAAPSVFIFPPSDEQLKSGTASVVCLLNNFYPREAKVQWKVDNALQSGNSQESVTEQDSKDSTYSLSSTLTLSKADYEKHKVYACEVTHQGLSSPVTKSFNRGEC
2 | – | – | – | – | – | 1 | 0.155 ratio | 0.0774 ratio | H5L7 (antibody, human IgG1, kappa, Humanised IgG1/kappa of A9H12 (IMP731); also called fucosylated H5L7; non-ADCC enhanced variant H5L7) heavy: not shown light: DIQMTQSPSSLSASVGDRVTITCKSSQSLLNPSNQKNYLAWYQQKPGKAPKLLVYFASTRDSGVPSRFSGSGSGTDFTLTISSLQPEDFATYYCLQHFGTPPTFGQGTKLEIKRTVAAPSVFIFPPSDEQLKSGTASVVCLLNNFYPREAKVQWKVDNALQSGNSQESVTEQDSKDSTYSLSSTLTLSKADYEKHKVYACEVTHQGLSSPVTKSFNRGEC
